Measured values from the supplement of paper PMC9732359.
± gives the uncertainty stated by the source.

Assay: protein stability index of a GFP-peptide fusion (yeast GPS) (PSI 1-4); higher = more stable; sorted into four equal gates, so the index is relative within each strain
Method in brief: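 Each library plasmid carries Cherry plus GFP with a tiled 17-residue yeast protein peptide fused downstream, and the pooled library was carried in yeast. Mid-log cultures in leucine-free medium were sorted into four equal gates by GFP/Cherry ratio. Reads from Illumina sequencing of PCR-amplified plasmids from each gate were assigned to strains by barcodes. Per peptide, the protein stability index was computed as the summed products of gate read frequency and gate number.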

Sequence	protein stability index (doa10∆)	protein stability index (pdr5∆)	protein stability index (san1∆)	protein stability index (ubr1∆)
PGGAASKSVPTPSLPIA [SNF5]	2.9 ± 0.062	3.07 ± 0.056	2.97 ± 0.036	3.06 ± 0.041
PGSSITETEVEREQPQE [SRB4]	3.09 ± 0.093	3.38 ± 0.12	3.07 ± 0.075	3.35 ± 0.078
PHDLIIGTADIFIRQLK [BRR2]	2.11 ± 0.057	2.51 ± 0.069	2.27 ± 0.073	2.49 ± 0.052
PIDIFQIIRRVKEMEPK [SIR3]	3.1 ± 0.13	3.22 ± 0.18		2.94 ± 0.29
PIGRDGKLAKPRQLHNT [RPB2]	2.89 ± 0.077	2.88 ± 0.068	2.67 ± 0.059	2.84 ± 0.081
PILAPSVKDYRPAEETE [RPS3]	3 ± 0.056	3.13 ± 0.051	3.174 ± 0.03	2.92 ± 0.04
PIPDARNAALRAKAEAA [SCL1]	2.39 ± 0.14	2.69 ± 0.11	2.44 ± 0.13	2.34 ± 0.092
PKDKAIKRMAIRNIVEA [RPS26A]	1.25 ± 0.068	1.63 ± 0.096	1.9 ± 0.15	1.95 ± 0.054
PKEVDGLEVGPVVQVGI [IRR1]	3.38 ± 0.11	2.98 ± 0.088	3.37 ± 0.18	3.23 ± 0.08
PKFAIQDNHHITKVTEN [YMR129W/POM152]	2.83 ± 0.052	2.88 ± 0.058	2.75 ± 0.04	3.09 ± 0.041
PKFGVEGLIRLDNLTED [DIS3]	2.97 ± 0.074	2.86 ± 0.068	3.08 ± 0.043	3.07 ± 0.038
PKGATYGKPTNQGVNEL [RPL15A]	3.02 ± 0.1	3.22 ± 0.085	3.2 ± 0.054	3.29 ± 0.044
PKHSYLSGNPLTSVTND [SIR4]	2.67 ± 0.073	3.03 ± 0.071	3.17 ± 0.056	2.97 ± 0.074
PKIDEDDTWYNLTEFVQ [AAR2]	3.17 ± 0.088	3.23 ± 0.086	3.07 ± 0.049	3.07 ± 0.057
PKILIREHERVILKQIL [SWP82]	1.84 ± 0.081	2.18 ± 0.092	3.18 ± 0.24	3.15 ± 0.12
PKWERVFLFDIEKVDRE [RRI2]	2.4 ± 0.1	2.33 ± 0.056	2.1 ± 0.1	2.57 ± 0.073
PKYESLKLEYYNLLVKI [RPN5]	2.1 ± 0.084	1.48 ± 0.1	1.12 ± 0.3	1.24 ± 0.059
PLAAGNFVSEKGDLRRG [RPC53]		3.4 ± 0.19	3.31 ± 0.17	3.24 ± 0.11
PLAPAPINLPPQIAQLP [SNF5]	1.8 ± 0.079	2.09 ± 0.064	1.88 ± 0.12	1.97 ± 0.061
PLARNYIKSMDLISKKT [RPR2]	2.78 ± 0.065	3.01 ± 0.063	2.77 ± 0.054	2.94 ± 0.039
PLEKITDAYLDQYLWYE [PRP8]	3.19 ± 0.13	3.36 ± 0.18	3.03 ± 0.18	3.18 ± 0.12
PLFFVDLKLLFNTEAEQ [RGR1]	2.73 ± 0.077	2.83 ± 0.063	3.19 ± 0.085	3.14 ± 0.057
PLINLALIDTEFANFEL [YML103C/NUP188]	2.71 ± 0.083	2.72 ± 0.071	2.5 ± 0.089	2.95 ± 0.073
PLKFKLGPLSYQNMAFI [YJR042W/NUP85]	2.42 ± 0.064	2.55 ± 0.06	2.58 ± 0.062	2.6 ± 0.049
PLKIHRTPYLTSLKKIK [SWI1]	1.81 ± 0.054	1.82 ± 0.043	1.75 ± 0.07	1.79 ± 0.039
PLLLVGLDKFSNIDIRV [RPS16A]	1.83 ± 0.073	1.76 ± 0.049	1.74 ± 0.094	2.11 ± 0.044
PLPAVFSAPIRPDIVHT [RPL4A]	1.96 ± 0.04	2.35 ± 0.04	2.08 ± 0.06	2.13 ± 0.041
